Consider six molecules from patent publication US7074904.

Where two headings read alike, the source gives them in different places.

Test [1] has as its target membrane-bound single-chain I-A^d-OVA (SCT1 construct) on transfected NSO cells (mouse (I-A^d); chicken (OVA peptide)). Put plainly: flow cytometry, FITC-conjugated AMS 32.1 1:100 on T6 (SCT1-transfectant).
In test [2] the target is I-A^d on NSO parental cells (untransfected negative control, H-2^d background) (mouse) (UniProt P04228). Briefly: flow cytometry, FITC-conjugated AMS 32.1 1:100 on NSO (parental) cells.
Test [3] has as its target membrane-bound single-chain I-A^d-OVA (SCT1 construct) on transfected NSO cells (mouse (I-A^d); chicken (OVA peptide)). Briefly: flow cytometry, FITC-conjugated AMS 32.1 1:100 on T12 (SCT1-transfectant). (Flow cytometry measures light scatter and fluorescence of single cells or particles in a stream.)
The target is the same in test [4]. Briefly: flow cytometry, FITC-conjugated AMS 32.1 1:100 on T2 (SCT1-transfectant).
For test [5] the target is unchanged. Briefly: flow cytometry, FITC-conjugated 10-3.6 isotype control 1:100 on T2 (SCT1-transfectant).
The target is the same in test [6]. Briefly: flow cytometry, FITC-conjugated 10-3.6 isotype control 1:100 on T6 (SCT1-transfectant).
The target is the same in test [7]. Briefly: flow cytometry, FITC-conjugated 10-3.6 isotype control 1:100 on T12 (SCT1-transfectant).
Test [8] deals with I-A^d on NSO parental cells (untransfected negative control, H-2^d background) (mouse) (UniProt P04228). Put plainly: flow cytometry, FITC-conjugated 10-3.6 isotype control 1:100 on NSO (parental) cells.
For test [9], the target named is T cell receptor of the murine T cell hybridoma DO11.10 (I-A^d restricted, OVA peptide 323-339 specific) (mouse). Briefly: cell-based or functional assay.
Test [10] has the same target. Put plainly: cell-based or functional assay. This is another data set of the same source.

As to “AMS-32.1 anti-IA^d (Pharmingen) (antibody)”, the Mean Fluorescence in [1] is 418; in test [2], 280; in [3], 911; in test [4], 613.
In the case of “isotype matched FITC-conjugated anti-I-A^k antibody, 10-3.6 (PharMingen)”, the Mean Fluorescence stood at 22 in [5], 45.1 in test [6], 45.9 in test [7] and 32.1 in [8].

B1: soluble single-chain I-A^d-OVA from insect cells (SSC1 gene in pMBSC1.2, SF9 cells) (peptide-MHC)
chain: TMALQIPSLLLSAAVVVLMVLSSPRTLSISQAVHAAHAEINEAGRASGGGGSGGGGNSERHFVVQFKGECYYTNGTQRIRLVTRYIYNREEYVRYDSDVGEYRAVTELGRPDAEYWNSQPEILERTRAEVDTACRHNYEGPETSTSLRRLEQPNVAISLSRTEALNHHNTLVCSVTDFYPAKIKVRWFRNGQEETVGVSSTQLIRNGDWTFQVLVMLEMTPHQGEVYTCHVEHPSLKSPITVEWTSGGGGSGGGGSGGGGSGGGGSSSEDDIEADHVGFYGTTVYQSPGDIGQYTHEFDGDELFYVDLDKKKTVWRLPEFGQLILFEPQGGLQNIAAEKHNLGILTKRSNFTPATNEAPQATVFPKSPVLLGQPNTLICFVDNIFPPVINITWLRNSKSVTDGVYETSFLVNRDHSFHKLSYLTFIPSDDDIYDCKVEHWGLEEPVLKHWSRASHHHHHH
In the case of B1, in [9], the IL-2 concentration in DO11 super, 39 ng/well immobilized scIA^d-OVA (extended dilution) was 0 U/ml; the IL-2 concentration in DO11 super, 78 ng/well immobilized sc IA^d-OVA was 45 U/ml; the IL-2 concentration in DO11 super, 78 ng/well immobilized scIA^d-OVA (extended dilution) was found to be 17 U/ml; the IL-2 concentration in DO11 super, 156 ng/well immobilized sc IA^d-OVA came out at 100 U/ml. In test [9], this molecule came in with an IL-2 concentration in DO11 super, 156 ng/well immobilized scIA^d-OVA (extended dilution) of 24 U/ml; an IL-2 concentration in DO11 super, 312 ng/well immobilized sc IA^d-OVA of 109 U/ml; an IL-2 concentration in DO11 super, 312 ng/well immobilized scIA^d-OVA (extended dilution) of 35 U/ml; an IL-2 concentration in DO11 super, 625 ng/well immobilized sc IA^d-OVA of 116 U/ml. Further, in test [9], the IL-2 concentration in DO11 super, 625 ng/well immobilized scIA^d-OVA (extended dilution) stood at 38 U/ml; the IL-2 concentration in DO11 super, 1250 ng/well immobilized sc IA^d-OVA stood at 126 U/ml; the IL-2 concentration in DO11 super, 2500 ng/well immobilized sc IA^d-OVA amounted to 143 U/ml; the IL-4 concentration in DO11 super, 78 ng/well immobilized sc IA^d-OVA was 7 U/ml. In test [9], this molecule registered an IL-4 concentration in DO11 super, 156 ng/well immobilized sc IA^d-OVA of 10 U/ml; an IL-4 concentration in DO11 super, 312 ng/well immobilized sc IA^d-OVA of 16 U/ml; an IL-4 concentration in DO11 super, 625 ng/well immobilized sc IA^d-OVA of 15 U/ml; an IL-4 concentration in DO11 super, 1250 ng/well immobilized sc IA^d-OVA of 20 U/ml. In [9], this molecule had an IL-4 concentration in DO11 super, 2500 ng/well immobilized sc IA^d-OVA of 23 U/ml; an IL-r [IL-4] concentration in DO11 super, 39 ng/well immobilized scIA^d-OVA (extended dilution) of 0 U/ml; an IL-r [IL-4] concentration in DO11 super, 78 ng/well immobilized scIA^d-OVA (extended dilution) of 0.8 U/ml; an IL-r [IL-4] concentration in DO11 super, 156 ng/well immobilized scIA^d-OVA (extended dilution) of 0.9 U/ml. In test [9], the IL-r [IL-4] concentration in DO11 super, 312 ng/well immobilized scIA^d-OVA (extended dilution) was found to be 1.5 U/ml and the IL-r [IL-4] concentration in DO11 super, 625 ng/well immobilized scIA^d-OVA (extended dilution) turned out to be 2 U/ml.

B2: membrane-bound single-chain I-A^d-OVA (SCT1 construct) on transfected NSO cells (peptide-MHC)
chain: TMALQIPSLLLSAAVVVLMVLSSPRTLSISQAVHAAHAEINEAGRASGGGGSGGGGNSERHFVVQFKGECYYTNGTQRIRLVTRYIYNREEYVRYDSDVGEYRAVTELGRPDAEYWNSQPEILERTRAEVDTACRHNYEGPETSTSLRRLEQPNVAISLSRTEALNHHNTLVCSVTDFYPAKIKVRWFRNGQEETVGVSSTQLIRNGDWTFQVLVMLEMTPHQGEVYTCHVEHPSLKSPITVEWTSGGGGSGGGGSGGGGSGGGGSSSEDDIEADHVGFYGTTVYQSPGDIGQYTHEFDGDELFYVDLDKKKTVWRLPEFGQLILFEPQGGLQNIAAEKHNLGILTKRSNFTPATNEAPQATVFPKSPVLLGQPNTLICFVDNIFPPVINITWLRNSKSVTDGVYETSFLVNRDHSFHKLSYLTFIPSDDDIYDCKVEHWGLEEPVLKHWEPEIPAPMSELTETVVCALGLSVGLVGIVVGTIFIIQGLRSGGTSRHPGPL
As for B2, in [9], the IL-2 ELISA result (Absorbance), DO11.10 with T2 (SCT1 transfectant) as antigen presenting cell was 0.758 Absorbance and the IL-2 ELISA result (Absorbance), DO11.10 with T6 (SCT1 transfectant) as antigen presenting cell was found to be 0.307 Absorbance. This molecule gave an IL-2 ELISA result (Absorbance), DO11.10 with T12 (SCT1 transfectant) as antigen presenting cell in [10] of 1.03 Absorbance.

B3: I-A^d on NSO parental cells (untransfected negative control, H-2^d background) (protein, mouse)
MHC II alpha: EDDIEADHVGFYGTTVYQSPGDIGQYTHEFDGDELFYVDLDKKKTVWRLPEFGQLILFEPQGGLQNIAAEKHNLGILTKRSNFTPATNEAPQATVFPKSPVLLGQPNTLICFVDNIFPPVINITWLRNSKSVTDGVYETSFLVNRDHSFHKLSYLTFIPSDDDIYDCKVEHWGLEEPVLKHWEPEIPAPMSELTETVVCALGLSVGLVGIVVGTIFIIQGLRSGGTSRHPGPL
MHC II beta: GNSERHFVVQFKGECYYTNGTQRIRLVTRYIYNREEYVRYDSDVGEYRAVTELGRPDAEYWNSQPEILERTRAEVDTACRHNYEGPETSTSLRRLEQPNVAISLSRTEALNHHNTLVCSVTDFYPAKIKVRWFRNGQEETVGVSSTQLIRNGDWTFQVLVMLEMTPHQGEVYTCHVEHPSLKSPITVEWRAQSESARSKMLSGIGGCVLGVIFLGLGLFIRHRSQKGPRGPPPAGLLQ
With B3, the IL-2 ELISA result (Absorbance), DO11.10 with NSO (parental cell line) as antigen presenting cell in test [9] came out at 0.047 Absorbance; in [10] it was 0.078 Absorbance.

B4: I-A^d on A20 cells with added OVA 323-339 peptide (peptide-MHC, mouse)
MHC II alpha: EDDIEADHVGFYGTTVYQSPGDIGQYTHEFDGDELFYVDLDKKKTVWRLPEFGQLILFEPQGGLQNIAAEKHNLGILTKRSNFTPATNEAPQATVFPKSPVLLGQPNTLICFVDNIFPPVINITWLRNSKSVTDGVYETSFLVNRDHSFHKLSYLTFIPSDDDIYDCKVEHWGLEEPVLKHWEPEIPAPMSELTETVVCALGLSVGLVGIVVGTIFIIQGLRSGGTSRHPGPL
MHC II beta: GNSERHFVVQFKGECYYTNGTQRIRLVTRYIYNREEYVRYDSDVGEYRAVTELGRPDAEYWNSQPEILERTRAEVDTACRHNYEGPETSTSLRRLEQPNVAISLSRTEALNHHNTLVCSVTDFYPAKIKVRWFRNGQEETVGVSSTQLIRNGDWTFQVLVMLEMTPHQGEVYTCHVEHPSLKSPITVEWRAQSESARSKMLSGIGGCVLGVIFLGLGLFIRHRSQKGPRGPPPAGLLQ
peptide: SISQAVHAAHAEINEAGR
Turning to B4, the IL-2 ELISA result (Absorbance), DO11.10 with A20 + OVA 323-339 peptide (positive control) in test [9] was determined as 1.33 Absorbance; in test [10], 1.45 Absorbance.
